By Ki is commonly meant a measure of affinity in units of concentration, obtained from inhibition or displacement. For orientation: IC50 means the point on the concentration scale where inhibition reaches its midpoint. The low end stands for greater potency, the high end for weaker potency.

These results are taken from patent publication EP1167527A9 (Euroscreen S.A., dated 2002).

Experiment [1] addresses T1, chemokine receptor CCR1 (human, UniProt P32246 1-355).
T1 construct: whole, on cells
T1 sequence (looked up): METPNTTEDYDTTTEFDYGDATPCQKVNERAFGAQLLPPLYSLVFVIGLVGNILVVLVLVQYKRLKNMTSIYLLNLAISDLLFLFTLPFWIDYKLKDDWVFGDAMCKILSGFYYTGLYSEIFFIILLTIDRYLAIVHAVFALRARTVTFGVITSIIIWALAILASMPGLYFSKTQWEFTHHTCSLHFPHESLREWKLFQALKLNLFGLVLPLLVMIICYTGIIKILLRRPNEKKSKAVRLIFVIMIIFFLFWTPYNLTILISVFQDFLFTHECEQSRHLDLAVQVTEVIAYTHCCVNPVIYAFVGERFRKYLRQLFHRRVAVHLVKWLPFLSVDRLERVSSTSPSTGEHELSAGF
Kind of experiment: radioligand competition binding, CCR1.

In experiment [2] the target is T2, chemokine receptor 5 (CCR5; AC P51681) (human, UniProt P51681 1-352). Description: cell-based or functional assay.
For experiment [3], the target named is T3, chemokine receptor CCR3 (human, UniProt P51677 1-355).
T3 construct: whole, on cells
T3 sequence (looked up): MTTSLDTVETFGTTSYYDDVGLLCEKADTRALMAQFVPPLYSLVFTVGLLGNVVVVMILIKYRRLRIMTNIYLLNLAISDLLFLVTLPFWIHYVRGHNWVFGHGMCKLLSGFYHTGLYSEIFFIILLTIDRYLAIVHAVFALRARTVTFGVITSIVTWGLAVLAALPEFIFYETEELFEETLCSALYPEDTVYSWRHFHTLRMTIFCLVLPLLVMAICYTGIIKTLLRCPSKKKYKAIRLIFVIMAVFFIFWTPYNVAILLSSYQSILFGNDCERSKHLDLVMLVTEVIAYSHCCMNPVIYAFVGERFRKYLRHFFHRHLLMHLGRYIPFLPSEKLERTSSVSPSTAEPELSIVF
Description: radioligand competition, 125I-Eotaxin tracer, CCR3. (Displacement assays read how much labelled ligand stays bound in the presence of the test substance.)

Experiment [4] concerns the target T1, chemokine receptor CCR1. Description: cell-based or functional assay.
The target of experiment [5] is T3, chemokine receptor CCR3. Description: cell-based or functional assay.
The target in experiment [6] is T2, chemokine receptor 5 (CCR5; AC P51681). Kind of experiment: radioligand competition, 0.1 nM 125I-MIP 1-alpha tracer, crude membranes of CHO-K1 cells expressing CCR5.
Experiment [7] deals with T3, chemokine receptor CCR3. Kind of experiment: radioligand competition, 0.1 nM 125I-Eotaxin tracer, crude membranes of CHO-K1 cells expressing CCR3.
For experiment [8], the target named is T1, chemokine receptor CCR1. Description: radioligand competition, 125I-Rantes tracer, CCR1.
Experiment [9] concerns the target T2, chemokine receptor 5 (CCR5; AC P51681). Description: radioligand competition, 125I-MIP 1-alpha tracer, CCR5.
The target in experiment [10] is T1, chemokine receptor CCR1. Description: radioligand competition, 0.1 nM 125I-Rantes tracer, crude membranes of CHO-K1 cells expressing CCR1.

T2 sequence (P51681 whole entry, one chain of several): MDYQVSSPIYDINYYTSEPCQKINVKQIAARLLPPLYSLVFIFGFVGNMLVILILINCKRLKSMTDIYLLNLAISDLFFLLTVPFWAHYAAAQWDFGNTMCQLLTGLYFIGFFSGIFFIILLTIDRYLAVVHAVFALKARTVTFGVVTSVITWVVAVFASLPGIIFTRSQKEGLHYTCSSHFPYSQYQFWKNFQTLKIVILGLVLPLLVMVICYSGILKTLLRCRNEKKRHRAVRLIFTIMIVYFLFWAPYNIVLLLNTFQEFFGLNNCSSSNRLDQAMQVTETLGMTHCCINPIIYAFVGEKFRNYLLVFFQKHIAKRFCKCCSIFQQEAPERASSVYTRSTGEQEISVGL

B1: full size human chemokine HCC-1, amino acid residues 1-74 (ligand)
chain: TKTESSSRGPYHPSECCFTYTTYKIPRQRIMDYYETNSQCSKPGIVFITKRGHSVCTNPSDKWVQDYIKDMKEN
notes: 74-residue chemokine, Mr 8673; Swiss-Prot Q16627 is printed for the HCC-1 precursor; also called full-size HCC-1; full length HCC-1
In the case of B1, the Ki in the experiment with chemokine receptor CCR1 [1] came to 100 nM.

B2: MIP 1-alpha (ligand, UniProt P10147 24-92, looked up)
chain: SLAADTPTACCFSYTSRQIPQNFIADYFETSSQCSKPGVIFLTKRSRQVCADPSEEWVQKYVSDLELSA
As to B2, the “aequorin assay (intracellular calcium), CHO-K1 cells expressing CCR5, EC50” value (“aequorin assay (intracellular calcium)” for short) in experiment [2] amounted to 3.3 nM.

B3: processed human chemokine PHC-1 (ligand)
chain: GPYHPSECCFTYTTYKIPRQRIMDYYETNSQCSKPGIVFITKRGHSVCTNPSDKWVQDYIKDMKEN
notes: Purified from human hemofiltrate or made by tryptic digestion of HCC-1 (1-74); also called HCC-1[9-74]; HCC-1, residues 9-74
For the molecule B3, the inhibitory constant (Ki) with chemokine receptor CCR3 [3] was determined as 2.7 nM; with chemokine receptor CCR1 [8] it was 0.023 nM; in experiment [9], 0.04 nM. Also, the “functional aequorin-based assay, EC50” value was determined as 2.8 nM in the experiment with chemokine receptor CCR1 [4] and 78 nM with chemokine receptor CCR3 [5]. Moreover, in experiment [2], the “aequorin assay (intracellular calcium)” value stood at 4.8 nM. The half-maximal inhibitory concentration (IC50) in experiment [6] came out at 0.04 nM; with chemokine receptor CCR3 [7] it was 78 nM; with chemokine receptor CCR1 [10] it was 2.3 nM.

B4: RANTES (ligand, UniProt P13501 24-91, looked up)
chain: SPYSSDTTPCCFAYIARPLPRAHIKEYFYTSGKCSNPAVVFVTRKNRQVCANPEKKWVREYINSLEMS
For the molecule B4, in the experiment with chemokine receptor CCR1 [4], the “functional aequorin-based assay, EC50” value was found to be 6.3 nM. Also, in experiment [2], the “aequorin assay (intracellular calcium)” value turned out to be 2.4 nM.
